Experimental findings from paper PMC4360782, “A new high-performance heterologous fungal expression system based on regulatory elements from the Aspergillus terreus terrein gene cluster” are described below.

Data set [1] has as its target T1, TerR35-138 (Aspergillus terreus SBUG844, UniProt Q0D1P5 35-138).
T1 sequence: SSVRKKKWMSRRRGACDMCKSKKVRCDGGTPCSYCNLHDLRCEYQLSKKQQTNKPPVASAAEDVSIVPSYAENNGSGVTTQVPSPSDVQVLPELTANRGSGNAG
In words: SPR; molar ratio 1.87; SPR (Biacore 2000, SA-coated CM3 chip): 10 mM HEPES pH 7.4, 150 mM NaCl, 0.005% P20, 5 mM beta-mercaptoethanol, 1 uM ZnCl2, 25 C; protein 12.5-6400 nM; 1:1 model with mass transport. The following applies: protein: recombinant; (pET-29a; theoretical mass 11.35 kDa); label: biotin on one strand; 18 bp duplex. In general terms: In SPR one partner is held on a chip, and binding of the other changes the refractive index at the surface.

In data set [2] the target is T1, TerR35-138. In words: SPR; molar ratio 1.25; SPR (Biacore 2000, SA-coated CM3 chip): 10 mM HEPES pH 7.4, 150 mM NaCl, 0.005% P20, 5 mM beta-mercaptoethanol, 1 uM ZnCl2, 25 C; protein 12.5-6400 nM; 1:1 model with mass transport. The following applies: protein: recombinant; (pET-29a; theoretical mass 11.35 kDa); label: biotin on one strand; 18 bp duplex.
The target in data set [3] is T2, TerR43-138 (Aspergillus terreus SBUG844, UniProt Q0D1P5 43-138).
T2 sequence: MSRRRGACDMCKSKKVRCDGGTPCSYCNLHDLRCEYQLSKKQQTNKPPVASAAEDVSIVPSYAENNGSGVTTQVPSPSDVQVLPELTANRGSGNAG
In words: SPR; molar ratio 0.91; SPR (Biacore 2000, SA-coated CM3 chip): 10 mM HEPES pH 7.4, 150 mM NaCl, 0.005% P20, 5 mM beta-mercaptoethanol, 1 uM ZnCl2, 25 C; protein 12.5-6400 nM; 1:1 model with mass transport. The following applies: protein: recombinant; (pET-29a; mass used 10218 Da); label: biotin on one strand; 18 bp duplex.

Data set [4] has as its target T2, TerR43-138. Description: SPR; molar ratio 0.85; SPR (Biacore 2000, SA-coated CM3 chip): 10 mM HEPES pH 7.4, 150 mM NaCl, 0.005% P20, 5 mM beta-mercaptoethanol, 1 uM ZnCl2, 25 C; protein 12.5-6400 nM; 1:1 model with mass transport. The following applies: protein: recombinant; (pET-29a; mass used 10218 Da); label: biotin on one strand; 18 bp duplex.
Data set [5] has as its target T1, TerR35-138. In words: SPR; molar ratio 1.62; SPR (Biacore 2000, SA-coated CM3 chip): 10 mM HEPES pH 7.4, 150 mM NaCl, 0.005% P20, 5 mM beta-mercaptoethanol, 1 uM ZnCl2, 25 C; protein 12.5-6400 nM; 1:1 model with mass transport. The following applies: protein: recombinant; (pET-29a; theoretical mass 11.35 kDa); label: biotin on one strand; 18 bp duplex.
The target of data set [6] is T1, TerR35-138. In words: SPR; molar ratio 1.19; SPR (Biacore 2000, SA-coated CM3 chip): 10 mM HEPES pH 7.4, 150 mM NaCl, 0.005% P20, 5 mM beta-mercaptoethanol, 1 uM ZnCl2, 25 C; protein 12.5-6400 nM; 1:1 model with mass transport. The following applies: protein: recombinant; (pET-29a; theoretical mass 11.35 kDa); label: biotin on one strand; 18 bp duplex.
Data set [7] addresses T2, TerR43-138. In words: SPR; molar ratio 0.88; SPR (Biacore 2000, SA-coated CM3 chip): 10 mM HEPES pH 7.4, 150 mM NaCl, 0.005% P20, 5 mM beta-mercaptoethanol, 1 uM ZnCl2, 25 C; protein 12.5-6400 nM; 1:1 model with mass transport. The following applies: protein: recombinant; (pET-29a; mass used 10218 Da); label: biotin on one strand; 18 bp duplex.
Data set [8] addresses T2, TerR43-138. In words: SPR; molar ratio 0.92; SPR (Biacore 2000, SA-coated CM3 chip): 10 mM HEPES pH 7.4, 150 mM NaCl, 0.005% P20, 5 mM beta-mercaptoethanol, 1 uM ZnCl2, 25 C; protein 12.5-6400 nM; 1:1 model with mass transport. The following applies: protein: recombinant; (pET-29a; mass used 10218 Da); label: biotin on one strand; 18 bp duplex.
Data set [9] has as its target T1, TerR35-138. Description: SPR; molar ratio 1.51; SPR (Biacore 2000, SA-coated CM3 chip): 10 mM HEPES pH 7.4, 150 mM NaCl, 0.005% P20, 5 mM beta-mercaptoethanol, 1 uM ZnCl2, 25 C; protein 12.5-6400 nM; 1:1 model with mass transport. The following applies: protein: recombinant; (pET-29a; theoretical mass 11.35 kDa); label: biotin on one strand; 18 bp duplex.
The target in data set [10] is T2, TerR43-138. In words: SPR; molar ratio 1.06; SPR (Biacore 2000, SA-coated CM3 chip): 10 mM HEPES pH 7.4, 150 mM NaCl, 0.005% P20, 5 mM beta-mercaptoethanol, 1 uM ZnCl2, 25 C; protein 12.5-6400 nM; 1:1 model with mass transport. The following applies: protein: recombinant; (pET-29a; mass used 10218 Da); label: biotin on one strand; 18 bp duplex.
For data set [11], the target named is T1, TerR35-138. In words: SPR; molar ratio 1.17; SPR (Biacore 2000, SA-coated CM3 chip): 10 mM HEPES pH 7.4, 150 mM NaCl, 0.005% P20, 5 mM beta-mercaptoethanol, 1 uM ZnCl2, 25 C; protein 12.5-6400 nM; 1:1 model with mass transport. The following applies: protein: recombinant; (pET-29a; theoretical mass 11.35 kDa); label: biotin on one strand; 18 bp duplex.
The target of data set [12] is T1, TerR35-138. Description: SPR; molar ratio 1.93; SPR (Biacore 2000, SA-coated CM3 chip): 10 mM HEPES pH 7.4, 150 mM NaCl, 0.005% P20, 5 mM beta-mercaptoethanol, 1 uM ZnCl2, 25 C; protein 12.5-6400 nM; 1:1 model with mass transport. The following applies: protein: recombinant; (pET-29a; theoretical mass 11.35 kDa); label: biotin on one strand; 18 bp duplex.
The target in data set [13] is T1, TerR35-138. In words: SPR; molar ratio 0.92; SPR (Biacore 2000, SA-coated CM3 chip): 10 mM HEPES pH 7.4, 150 mM NaCl, 0.005% P20, 5 mM beta-mercaptoethanol, 1 uM ZnCl2, 25 C; protein 12.5-6400 nM; 1:1 model with mass transport. The following applies: protein: recombinant; (pET-29a; theoretical mass 11.35 kDa); label: biotin on one strand; 18 bp duplex.
Data set [14] deals with T1, TerR35-138. In words: SPR; molar ratio 1.12; SPR (Biacore 2000, SA-coated CM3 chip): 10 mM HEPES pH 7.4, 150 mM NaCl, 0.005% P20, 5 mM beta-mercaptoethanol, 1 uM ZnCl2, 25 C; protein 12.5-6400 nM; 1:1 model with mass transport. The following applies: protein: recombinant; (pET-29a; theoretical mass 11.35 kDa); label: biotin on one strand; 18 bp duplex.
Data set [15] concerns the target T2, TerR43-138. In words: SPR; molar ratio 1.04; SPR (Biacore 2000, SA-coated CM3 chip): 10 mM HEPES pH 7.4, 150 mM NaCl, 0.005% P20, 5 mM beta-mercaptoethanol, 1 uM ZnCl2, 25 C; protein 12.5-6400 nM; 1:1 model with mass transport. The following applies: protein: recombinant; (pET-29a; mass used 10218 Da); label: biotin on one strand; 18 bp duplex.
For data set [16], the target named is T1, TerR35-138. Description: SPR; molar ratio 1.14; SPR (Biacore 2000, SA-coated CM3 chip): 10 mM HEPES pH 7.4, 150 mM NaCl, 0.005% P20, 5 mM beta-mercaptoethanol, 1 uM ZnCl2, 25 C; protein 12.5-6400 nM; 1:1 model with mass transport. The following applies: protein: recombinant; (pET-29a; theoretical mass 11.35 kDa); label: biotin on one strand; 18 bp duplex.
The target of data set [17] is T1, TerR35-138. In words: SPR; molar ratio 0.95; SPR (Biacore 2000, SA-coated CM3 chip): 10 mM HEPES pH 7.4, 150 mM NaCl, 0.005% P20, 5 mM beta-mercaptoethanol, 1 uM ZnCl2, 25 C; protein 12.5-6400 nM; 1:1 model with mass transport. The following applies: protein: recombinant; (pET-29a; theoretical mass 11.35 kDa); label: biotin on one strand; 18 bp duplex.
In data set [18] the target is T1, TerR35-138. Description: SPR; molar ratio 1.38; SPR (Biacore 2000, SA-coated CM3 chip): 10 mM HEPES pH 7.4, 150 mM NaCl, 0.005% P20, 5 mM beta-mercaptoethanol, 1 uM ZnCl2, 25 C; protein 12.5-6400 nM; 1:1 model with mass transport. The following applies: protein: recombinant; (pET-29a; theoretical mass 11.35 kDa); label: biotin on one strand; 18 bp duplex.
Data set [19] deals with T2, TerR43-138. In words: SPR; molar ratio 0.95; SPR (Biacore 2000, SA-coated CM3 chip): 10 mM HEPES pH 7.4, 150 mM NaCl, 0.005% P20, 5 mM beta-mercaptoethanol, 1 uM ZnCl2, 25 C; protein 12.5-6400 nM; 1:1 model with mass transport. The following applies: protein: recombinant; (pET-29a; mass used 10218 Da); label: biotin on one strand; 18 bp duplex.
Data set [20] addresses T1, TerR35-138. In words: SPR; molar ratio 1.74; SPR (Biacore 2000, SA-coated CM3 chip): 10 mM HEPES pH 7.4, 150 mM NaCl, 0.005% P20, 5 mM beta-mercaptoethanol, 1 uM ZnCl2, 25 C; protein 12.5-6400 nM; 1:1 model with mass transport. The following applies: protein: recombinant; (pET-29a; theoretical mass 11.35 kDa); label: biotin on one strand; 18 bp duplex.

B1: BS5 (dsDNA)
DNA 1: GGGGCGGCTCCTCGGTAC
DNA 2: GTACCGAGGAGCCGCCCC
Turning to B1, the Kd with TerR35-138 [1] turned out to be 1530 ± 60 nM.

B2: BS7 (dsDNA)
DNA 1: ACTTCGGCTATCCGGTTA
DNA 2: TAACCGGATAGCCGAAGT
As to B2, the Kd in the data set with TerR35-138 [2] stood at 26.5 ± 0.3 nM; with TerR43-138 [3], 591 ± 2 nM.

B3: BS6 (dsDNA)
DNA 1: CTCTCGGAAACTCGGAAA
DNA 2: TTTCCGAGTTTCCGAGAG
As to B3, the Kd in the data set with TerR43-138 [4] was found to be 2050 ± 90 nM; with TerR35-138 [5] it was 150 ± 1 nM.

B4: BS4m2 (C directly after 5'-CGG to G) (dsDNA)
DNA 1: TCTTCGGGAATACGGACT
DNA 2: AGTCCGTATTCCCGAAGA
For B4, the figures for the Kd with TerR35-138 [6] and with TerR43-138 [7] were 155 ± 1 nM and 1370 ± 50 nM, respectively.

B5: BS9 (dsDNA)
DNA 1: GCTTCGGTAATTCGGTAA
DNA 2: TTACCGAATTACCGAAGC
For the molecule B5, the Kd with TerR43-138 [8] turned out to be 820 ± 4 nM; in the data set with TerR35-138 [9], 41 ± 0.4 nM.

B6: BS8 (dsDNA)
DNA 1: CGGGCGGTTAGGCGGCAT
DNA 2: ATGCCGCCTAACCGCCCG
Take B6: the figures for the Kd with TerR43-138 [10] and with TerR35-138 [11] were 17200 ± 500 nM and 286 ± 2 nM, respectively.

B7: BS2m1 (5'-CGG to CAA) (dsDNA)
DNA 1: TTATCAAACTTTCGGATT
DNA 2: AATCCGAAAGTTTGATAA
Turning to B7, in the data set with TerR35-138 [12], the Kd came to 5780 ± 60 nM.

B8: BS7m (second CGG half-site mutated) (dsDNA)
DNA 1: ACTTCGGCTATCCAATTA
DNA 2: TAATTGGATAGCCGAAGT
Regarding B8, the Kd with TerR35-138 [13] was found to be 25.3 ± 0.2 nM.

B9: BS1 (dsDNA)
DNA 1: GAGTCGGCATTACGGCGG
DNA 2: CCGCCGTAATGCCGACTC
On to B9, for which, in the data set with TerR35-138 [14], the Kd was found to be 527 ± 3 nM.

B10: BS2 (dsDNA)
DNA 1: TTATCGGACTTTCGGATT
DNA 2: AATCCGAAAGTCCGATAA
As for B10, the values for the Kd with TerR43-138 [15] and with TerR35-138 [5] were 3730 ± 30 nM and 536 ± 3 nM, respectively.

B11: BS4 (dsDNA)
DNA 1: TCTTCGGCAATACGGACT
DNA 2: AGTCCGTATTGCCGAAGA
As to B11, the Kd in the data set with TerR35-138 [16] was found to be 65.6 ± 0.6 nM; in the data set with TerR43-138 [7], 1070 ± 60 nM.

B12: BS2m2 (3'-CGG to CAA) (dsDNA)
DNA 1: TTATCGGACTTTCAAATT
DNA 2: AATTTGAAAGTCCGATAA
On to B12, for which, in the data set with TerR35-138 [17], the Kd is 363 ± 2 nM.

B13: BS4m1 (TT before 5'-CGG to GG) (dsDNA)
DNA 1: TGGGCGGCAATACGGACT
DNA 2: AGTCCGTATTGCCGCCCA
Regarding B13, the Kd was 429 ± 2 nM in the data set with TerR35-138 [18] and 9300 ± 1000 nM with TerR43-138 [19].

B14: BS3 (dsDNA)
DNA 1: GAGACGGAAACTCGGGTT
DNA 2: AACCCGAGTTTCCGTCTC
For the molecule B14, the Kd with TerR35-138 [20] came to 676 ± 3 nM.

A word on the Kd: it is the free concentration of one partner at which half of the binding sites on the other are occupied at equilibrium, for simple one-to-one binding.
